PMC9933121 (Proceedings of the National Academy of Sciences of the …, 2023)

Experiments:
[1] = target: DENV2 strain 16681 premembrane (prM) protein, wild type (dengue virus 2 strain 16681)
[2] = target: trimeric prM–E spike of immature DENV2 strain 16681 virions (dengue virus 2 strain 16681); assay: cryo-EM structure
[3] = target: T1, DENV2 strain 16681 premembrane (prM) protein, wild type (Dengue virus 2 strain 16681 (NC_001474)); assay: cell-based or functional assay
T1 chain: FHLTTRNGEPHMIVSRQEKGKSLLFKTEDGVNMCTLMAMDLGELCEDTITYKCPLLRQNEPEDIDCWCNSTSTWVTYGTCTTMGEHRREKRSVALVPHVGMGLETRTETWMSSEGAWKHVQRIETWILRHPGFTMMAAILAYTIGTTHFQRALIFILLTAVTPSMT

B1: prM12, murine prM-reactive monoclonal antibody (IgG2c) (antibody, V domains shown)
VH: EVQLQESGPELVKPGTSVKMSCKASGYTFTDYNIHWVKQSHGKSLEWIGYINPNNGGNKYTQKFEGRATLTVGKSSSTAYMELRSLTSEDSAVYYCARSPMYFYYDGSYYFDYWGQGTSLSVSS
VL: DIVLTQSPASLAVSLGQRATISYRASKSVSTSGYSYMHWNQQKPGQPPRLLIYLVSNLESGVPARFSGSGSGTDFTLNIHPVEEEDAATYYCQHIRELTFGAAPSAAAR
neutralisation of DENV2 RVPs, EC50 of the sensitive fraction of virions [1]: 5 ng/mL

B2: prM12 Fab fragment (Fab, V domains shown)
VH: B1 VH
VL: B1 VL
occupancy [2]: 100%

B3: prM13, murine prM-reactive monoclonal antibody (IgG2c) (antibody, V domains shown)
VH: AAQLQESGPELVKPGASVKISCKASGYTFTDYFINWVRQSHGKSLEWIGDFYPNNRGPTYNQKFEGKATLTVDKSSSTAYMELRSLTSDDSAVYYCARGLWDAWLSYWGQGTLVTVSA
VL: AIVATQSPAIMSASPGEKVTISCSASSSVSYMYWYQQKPGSSPKPWIYRTSNLASGVPTRFSGSGSGTSYSFTISSMEAEDAATYYCQQYHNYPRTFGGGTKAKSA
neutralisation of DENV2 RVPs, EC50 of the sensitive fraction of virions [3]: ~5 ng/mL
